Changes are numbered by the printed parent chain. Numbers in names are those of the source.
Key:
TaPAPhy_b2 [1] = target: T1, TaPAPhy_b2 (Triticum aestivum, UniProt F6MIW5); parameters: gene TRAES_3BF026700100CFD_c1; conditions: deglycosylated enzyme; product-bound state 1.42 A; bound to both irons (second structure, substrate-bound state, 1.54 A: 6GIZ)
T1 sequence (F6MIW5 21-530): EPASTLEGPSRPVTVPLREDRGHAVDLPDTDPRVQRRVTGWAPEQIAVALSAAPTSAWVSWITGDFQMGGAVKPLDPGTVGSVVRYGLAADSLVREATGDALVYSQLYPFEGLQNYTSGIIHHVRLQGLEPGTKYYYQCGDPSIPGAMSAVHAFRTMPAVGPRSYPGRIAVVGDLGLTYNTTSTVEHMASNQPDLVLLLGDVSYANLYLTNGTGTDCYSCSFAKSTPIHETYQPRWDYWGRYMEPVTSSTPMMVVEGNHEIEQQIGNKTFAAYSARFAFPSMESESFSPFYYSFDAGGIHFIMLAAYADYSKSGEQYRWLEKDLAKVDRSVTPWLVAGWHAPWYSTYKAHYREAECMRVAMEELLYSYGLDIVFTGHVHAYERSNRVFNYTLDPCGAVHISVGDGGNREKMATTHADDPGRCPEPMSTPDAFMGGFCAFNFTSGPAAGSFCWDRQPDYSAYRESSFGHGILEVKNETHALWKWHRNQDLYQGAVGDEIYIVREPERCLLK

TaPAPhy_b2 [2] = target: T1, TaPAPhy_b2; assay: X-ray crystal structure of soaked crystal; type: binding; parameters: gene TRAES_3BF026700100CFD_c1; signal peptide (20 aa) and C-terminal 7-aa ER-retention signal removed; alpha-factor secretion signal, C-terminal 6xHis; Pichia pastoris KM71H (OCH1::G418R); 510 residues, Fe-Fe centre; glycosylated for assays, Endo F1 deglycosylated for crystals; conditions: 5 mM InsS6 soak, pH 5.5; deglycosylated enzyme; site adjacent to active centre (standby mode), phosphate at catalytic centre
purified protein = substrate: O=P(O)(O)O[C@H]1[C@H](OP(=O)(O)O)[C@@H](OP(=O)(O)O)[C@H](OP(=O)(O)O)[C@@H](OP(=O)(O)O)[C@H]1OP(=O)(O)O; assay: purified protein; conditions: 0.2 M acetate pH 5.5, glycosylated enzyme

O=P(O)(O)O [phosphate]
X-ray crystal structure (TaPAPhy_b2 [1]): A phosphate ion is bound to the two metal ions

O=S(=O)(O)O[C@H]1[C@H](OS(=O)(=O)O)[C@@H](OS(=O)(=O)O)[C@H](OS(=O)(=O)O)[C@@H](OS(=O)(=O)O)[C@H]1OS(=O)(=O)O [InsS6, myo-inositol hexakissulfate]
X-ray crystal structure of soaked crystal (TaPAPhy_b2 [2]): it binds at a site immediately adjacent to the active center

B1: TaPAPhy_b2 (Triticum aestivum) (protein)
chain: T1 sequence (F6MIW5 21-530)
Km (purified protein): 76.4 ± 7.7 µM
kcat (purified protein): 23.8 ± 0.9 s⁻¹

B2: TaPAPhy_b2 (Triticum aestivum; K368A) (protein)
chain: T1 sequence (F6MIW5 21-530) with K348A
Km (purified protein): 214.6 ± 46.6 µM
kcat (purified protein): 28.4 ± 3.0 s⁻¹

B3: TaPAPhy_b2 (Triticum aestivum; K430A) (protein)
chain: T1 sequence (F6MIW5 21-530) with K410A
Km (purified protein): 307.6 ± 56.7 µM
kcat (purified protein): 3.1 ± 0.3 s⁻¹

Reference: publication PMC9073318 (Plant Communications, 2022)
